Measured values taken from patent US20130101595A1 (AbbVie / Abbott, published 2013).
Residue numbers refer to the chain shown, from its start. In names and notes the source's numbering stands.

Tests used:
[1] = biological target: T1, recombinant human IL-18 (rhIL-18) (human, UniProt Q14116 37-193, biotinylated (D-biotinyl-epsilon-aminocaproic acid NHS ester, 2:1 molar ratio of biotin to rhIL-18) in the BIAcore assay; not said to be biotinylated in the KG-1 assay); test: cell-based or functional assay
[2] = biological target: T2, IL-18 peptide NRPLFEDMTDSDCR (SEQ ID NO: 36) (human); test: overlapping IL-18 peptide panel
T2 peptide: NRPLFEDMTDSDCR

[3] = biological target: T3, IL-18 peptide PLFEDMTDSDCRDNA (SEQ ID NO: 1) (human); test: told in a figure legend; 2E1 selected by phage display on an IL-18 peptide epitope
T3 peptide: PLFEDMTDSDCRDNA

[4] = biological target: T1, recombinant human IL-18 (rhIL-18); test: SPR (BIAcore), biotinylated rhIL-18 on streptavidin chip, antibody in solution
Protocol: Real-time binding interactions between ligand (biotinylated recombinant human IL-18 (rhIL-18) immobilized on a biosensor matrix) and analyte (antibodies in solution) were measured by surface plasmon resonance (SPR) using the BIAcore system (Pharmacia Biosensor, Piscataway, N.J.). The system utilizes the optical properties of SPR to detect alterations in protein concentrations within a dextran biosensor matrix. Proteins are covalently bound to the dextran matrix at known concentrations. Antibodies are injected through the dextran matrix and specific binding between injected antibodies and immobilized ligand results in an increased matrix protein concentration and resultant change in the SPR signal.
Biotinylated rhIL-18 to be immobilized on the matrix via streptavidin was diluted in PBS running buffer (Gibco Cat. No. 14190-144, Gibco BRL, Grand Island, N.Y.) supplemented with 0.05% (BIAcore) surfactant P20 (Pharmacia BR-1000-54, Pharmacia Biosensor, Piscataway, N.J.). To determine the capacity of rhIL-18-specific antibodies to bind immobilized rhIL-18, a binding assay was conducted as follows. Aliquots of biotinylated rhIL-18 (25 nM; 10 μl aliquots) were injected through the streptavidin-coupled dextran matrix at a flow rate of 5 μl/min. Before injection of the protein and immediately afterward, PBS buffer alone flowed through each flow cell. The net difference in signal between baseline and approximately 30 sec. after completion of biotinylated rhIL-18 injection was taken to represent the binding value. Direct rhIL-18-specific antibody binding to immobilized biotinylated rhIL-18 was measured. Antibodies (20 μg/ml) were diluted in PBS running buffer and 25 μl aliquots were injected through the immobilized protein matrices at a flow rate of 5 μl/min. Prior to injection of antibody, and immediately afterwards, PBS buffer alone flowed through each flow cell. The net difference in baseline signal and signal after completion of antibody injection was taken to represent the binding value of the particular sample. Biosensor matrices were regenerated using 100 mM HCl before injection of the next sample.

[5] = biological target: T1, recombinant human IL-18 (rhIL-18); test: SPR (BIAcore), biotinylated rhIL-18, scFv
[6] = biological target: T1, recombinant human IL-18 (rhIL-18); test: SPR (BIAcore), biotinylated rhIL-18 on streptavidin chip
[7] = biological target: T1, recombinant human IL-18 (rhIL-18); test: cell-based or functional assay; remark: listed apart in the source

B1: 2E1 (parent) ScFv (scFv, V domains shown)
VH: QVQLVQSGAEVKKPGASMKVSCKTSGYTFTGYYIHWVRQAHGQGFEWIGRLNPTTGDANFAEKFQGRVALTRDTSISTAYLQLDSLKSDDTAVYYCAGKEGAWGQGTLVTVSS
VL: SSELTQDPAVSVALGQTVRITCQGDSLRHFYPNWYQQKPGQAPVLVIYGKNNRPSGIPDRFSGSGSGNTGSLTITGAQAEDEADYYCGSRDSSGIHVVFGGGTKVTVLG
notes: Tested as single-chain Fv; also called single chain Fv version of antibody 2E1; 2E1 single chain antibody
In the case of B1, the “IC50 Value, KG-1 cell-based IL-18 neutralization assay (hIFN-gamma)” value (“IC50 Value” below) [1] is reported as 33 nM, the binding result [2] is reported as “binds” and the binding result [3] is reported as “binds”. The kon [4] was 2600 M⁻¹ s⁻¹.

B2: 2E1 mutant L34S + H53Y (scFv, V domains shown)
VH: B1 VH with T54Y
VL: B1 VL with N33S
With B2 the “IC50 Value” value [1] was 6.7 nM and the koff [4] was 5.28e-05 s⁻¹.

B3: 2E1 mutant H53R (scFv, V domains shown)
VH: B1 VH with T54R
VL: B1 VL
In the case of B3, the “IC50 Value” value [1] is reported as 25 nM and the koff [4] is reported as 0.00234 s⁻¹.

B4: 2E1 mutant L34S (scFv, V domains shown)
VH: B1 VH
VL: B1 VL with N33S
With B4 the “IC50 Value” value [1] was 15 nM and the koff [4] was 0.000169 s⁻¹.

B5: 2E1 mutant L34S + H53R + H58Q (scFv, V domains shown)
VH: B1 VH with T54R, N59Q
VL: B1 VL with N33S
For B5, the “IC50 Value” value [1] was 2.8 nM and the koff [4] was 6.18e-05 s⁻¹.

B6: 2E1 mutant L34S + H53R (2E1RS) (scFv, V domains shown)
VH: B1 VH with T54R
VL: B1 VL with N33S
B6 was tested, and the “IC50 Value” value [1] was 3 nM, the “fold improvement over the parent antibody 2E1” value [5] was greater than 10 fold and the “fold improvement over the parent antibody 2E1 (BIAcore analysis)” value [6] was greater than 10 fold. The Kd [4] was 23 nM, the koff [4] was 6.82e-05 s⁻¹ and the kon [4] was 2700 M⁻¹ s⁻¹. For the same binder, the “fold improvement over the parent antibody 2E1, KG-1 cell-based assay” value [7] was greater than 10 fold.

B7: 2E1 (parent) IgG (antibody, V domains shown)
VH: B1 VH
VL: B1 VL
With B7 the “IC50 Value” value [1] was 0.9 nM.
